From patent publication US20140242093A1, “METHODS AND COMPOSITIONS FOR MODULATING THE INNATE IMMUNE RESPONSE AND/OR MYOGENESIS IN A MAMMALIAN SUBJECT” (FRED HUTCHINSON CANCER RESEARCH CENTER, priority 2011, published 2014)

Test system: control human primary myoblasts
Assay: Expression microarray of primary myoblasts transduced with lentivirus carrying DUX4-fl, DUX4-s or GFP
Protocol: Primary human myoblasts were collected and cultured as previously described (Snider et al., 2010). Primary myoblasts were maintained at or below 70% confluency for proliferation. For differentiation, cells were allowed to reach 95-100% confluency in growth medium. Once confluency was reached, the cells were changed to differentiation medium (F10 media supplemented with 1% horse serum, 10 μg/mL insulin, and 10 μg/mL transferrin, penicillin/streptomycin) and maintained for 4 days. Human RD cells were grown in DMEM in 10% bovine calf serum (Hyclone) and penicillin/streptomycin. The primary myoblasts were transduced with lentivirus carrying DUX-fl, DUX4- or GFP (MOI=15).
Expression microarrays were performed on the transduced cells at 24 hours after transduction as follows. […] Samples were analyzed by Illumina Human Whole Genome microarrays. Probe intensities were corrected, normalized, and summarized by the Lumi package of Bioconductor (Du et al., 2008). Differentially expressed genes were identified by the LIMMA package of Bioconductor (Wettenhall and Smyth, 2004). Gene set enrichment analysis (GSEA) was performed using the Bioconductor GOstats package (Falcon and Gentleman, 2007).

B1: DUX4-s: short splice form of DUX4 (SEQ ID NO:112), keeps the double-homeobox domains, lacks the C-terminal activation domain (protein, listed as Homo sapiens)
chain: MALPTPSDSTLPAEARGRGRRRRLVWTPSQSEALRACFERNPYPGIATRERLAQAIGIPEPRVQIWFQNERSRQLRQHRRESRPWPGRRGPPEGRRKRTAVTGSQTALLLRAFEKDRFPGIAAREELARETGLPESRIQIWFQNRRARHPGQGGRAPAQV
In the case of B1, the IFITM3 expression fc (Refseq NM_021034.2, cultured human skeletal muscle) is reported as −0.1274, the NEFH expression fc (Refseq NM_021076.2) is reported as 0.09952 and the “fc of SLC8A1 (expression array)” value (Refseq NM_021097.2) is reported as 1.046. The PSAT1 fc (Refseq NM_021154.3) was 0.7365, the RAB40C fc (Refseq NM_021168.2) was −0.07138 and the “fc of SLC30A1 (expression array)” value (Refseq NM_021194.2) was 1.236. The CTDSP1 fc (Refseq NM_021198.1) was 0.04155, the ARHGAP22 fc (Refseq NM_021226.2) was 0.07773 and the “fc of NTN4 (expression array)” value (Refseq NM_021229.3) was 0.03724. For the same molecule, the PELI2 expression fc (Refseq NM_021255.2) was −0.3732, the PLEKHA2 fc (Refseq NM_021623.1) was 0.062 and the AVPI1 expression fc (Refseq NM_021732.1) was 0.1884. For the same molecule, the “fc of FAM3A (expression array)” value (Refseq NM_021806.1) was −0.1833, the APOBEC3G expression fc (Refseq NM_021822.1, cultured human skeletal muscle) was 1.408 and the “fc of C14orf93 (expression array)” value (Refseq NM_021944.1) was −0.1073. The HSPA2 expression fc (Refseq NM_021979.3) was −0.2546, the CXCL16 fc (Refseq NM_022059.1) was 1.184 and the NOD2 fc (Refseq NM_022162.1) was 0.4347. The IFIH1 expression fc (Refseq NM_022168.2, cultured human skeletal muscle) was 1.659, the HS1BP3 fc (Refseq NM_022460.3) was 0.05143 and the C14orf173 fc (Refseq NM_022489.2) was −0.2714. For the same molecule, the FEZ1 fc (Refseq NM_022549.2) was 0.19, the HIPK2 fc (Refseq NM_022740.2) was 0.3559 and the “fc of MOSC1 (expression array)” value (Refseq NM_022746.2) was −0.1084. For the same molecule, the PARP12 expression fc (Refseq NM_022750.2, cultured human skeletal muscle) was 0.7767, the CRTC3 fc (Refseq NM_022769.3) was −0.1184 and the FAM129B fc (Refseq NM_022833.2) was 0.4382. For the same molecule, the IFI6 expression fc (Refseq NM_022872.2, cultured human skeletal muscle) was −0.03611, the FGFR3 expression fc (Refseq NM_022965.1) was 0.04147 and the PRAMEF1 expression fc (Refseq NM_023013.1) was 0.0691. For the same molecule, the PRAMEF2 expression fc (Refseq NM_023014.1) was −0.04937, the C8orf33 expression fc (Refseq NM_023080.1) was −0.06075 and the GRAMD3 fc (Refseq NM_023927.1) was 0.3772. The NEUROG2 expression fc (Refseq NM_024019.2) was −0.004473, the NUP37 fc (Refseq NM_024057.2) was −0.1339 and the PRRG4 expression fc (Refseq NM_024081.4) was 0.2096. It also gave a TRIM48 expression fc (Refseq NM_024114.2) of −0.07954, a DHX58 expression fc (Refseq NM_024119.2, cultured human skeletal muscle) of 0.6965 and a PRKAG2 fc (Refseq NM_024429.1) of 0.7547. For the same molecule, the “fc of FAM65A (expression array)” value (Refseq NM_024519.2) was −0.1263, the “fc of ZC3HAV1 (expression array)” value (Refseq NM_024625.3) was 1.471 and the YRDC expression fc (Refseq NM_024640.3) was 0.000579. The NPEPL1 fc (Refseq NM_024663.3) was −0.2631, the SNIP1 expression fc (Refseq NM_024700.2) was −0.174 and the “fc of FAM57A (expression array)” value (Refseq NM_024792.1) was −0.003135. For the same molecule, the C13orf34 expression fc (Refseq NM_024808.2) was −0.002127, the “fc of NUDT18 (expression array)” value (Refseq NM_024815.3) was 0.1692 and the “fc of ZNF672 (expression array)” value (Refseq NM_024836.1) was −0.1481. It also gave a C14orf159 expression fc (Refseq NM_024952.5, cultured human skeletal muscle) of 0.5194, an NRSN2 fc (Refseq NM_024958.1) of 0.06807 and an SLC24A6 fc (Refseq NM_024959.2) of 0.0001018. For the same molecule, the CSRNP3 expression fc (Refseq NM_024969.2) was −0.07941, the “fc of ULBP1 (expression array)” value (Refseq NM_025218.2) was 0.6193 and the C6orf148 expression fc (Refseq NM_030568.2) was −0.1046. For the same molecule, the KLHL15 expression fc (Refseq NM_030624.1) was 0.7742, the “fc of ZBP1 (expression array)” value (Refseq NM_030776.1) was 1.187 and the SLC2A10 fc (Refseq NM_030777.3) was −0.3197. The SYNC1 fc (Refseq NM_030786.1) was −0.2508, the PDRG1 expression fc (Refseq NM_030815.2) was 0.0622 and the UNC93B1 expression fc (Refseq NM_030930.2, cultured human skeletal muscle) was 0.9411. The PPP1R14C expression fc (Refseq NM_030949.2) was −0.01369, the TRIM56 fc (Refseq NM_030961.1) was 0.3086 and the “fc of RNF146 (expression array)” value (Refseq NM_030963.2) was 0.1463. The ADPGK expression fc (Refseq NM_031284.3) was 0.09196, the C11orf68 fc (Refseq NM_031450.2) was 0.3616 and the FAM107B expression fc (Refseq NM_031453.2) was −0.1841. The PARP9 expression fc (Refseq NM_031458.1, cultured human skeletal muscle) was 0.4426, the IFI27L2 fc (Refseq NM_032036.2) was −0.02949 and the SFRS2B expression fc (Refseq NM_032102.2) was −0.3335.
